# According to patent US20100029568A1, “TIGHTER-BINDING C-PEPTIDE INHIBITORS OF HIV-1 ENTRY” (priority 2007, published 2010):
# Columns and labels:
# [1] = target: Res 4 (SDTV) Env from HIV-1 strain HXB2 (HIV-1 strain HXB2) (UniProt P04578); assay: cell-based or functional assay
# [2] = target: wild type Env (gp120/gp41) from HIV-1 strain HXB2 (HIV-1 strain HXB2) (UniProt P04578); assay: cell-based or functional assay
substance,measurement,setting,value
T20 (peptide),"IC50, nM; inhibitory potency against pseudotyped HIV-1",[1],900 nM
same,"IC50, nM; inhibitory potency against pseudotyped HIV-1",[2],2.3 nM
